Consider 167 variants from the Human Domainome abundance scans (Beltran et al. 2025).

± gives the uncertainty stated by the source.

B1: Friend leukemia integration 1 transcription factor, residues 116 to 197; numbered along this chain, Q01543 (parent)
chain: NMTTNERRVIVPADPTLWTQEHVRQWLEWAIKEYSLMEIDTSFFQNMDGKELCKMNKEDFLRATTLYNTEVLLSHLSYLRES

Variants of B1 are the subject of the data set. Description: abundance fitness (aPCA) (normalised: wild type 0, dead -1); higher = more abundant; growth selection in yeast, the domain comes from the species named. Particulars: Homo sapiens.
E38Q: the abundance fitness was -0.215 ± 0.11.

As to E38T, the abundance fitness is -0.145 ± 0.09.

In the case of A30I, the abundance fitness is -0.061 ± 0.12. Consider A30H, for which the abundance fitness was -0.162 ± 0.13. For the variant R24E, the abundance fitness is -0.348 ± 0.17. For R24L, the abundance fitness was -0.011 ± 0.07. Under R24T stands -0.058 ± 0.093; under R24P, -0.804 ± 0.22.

For R24I, the abundance fitness was -0.183 ± 0.24. Under R24F stands -0.044 ± 0.39. On to L17W, for which the abundance fitness is -0.203 ± 0.081.

Turning to L17M, the abundance fitness is -0.328 ± 0.14.

In the case of L17V, the abundance fitness was determined as 0.018 ± 0.065. Turning to L17Y, the abundance fitness was -0.096 ± 0.16. Take L17F: the abundance fitness is -0.132 ± 0.17. Under L17A stands 0.032 ± 0.075. Then W29C, with -0.041 ± 0.091; and W29D, with 0.189 ± 0.35; and W29V, with -0.14 ± 0.071. I39K: the abundance fitness was -1.04 ± 0.48. Turning to I39R, the abundance fitness was -1 ± 0.2. Then I39G, with -0.85 ± 0.13; and I39C, with -0.102 ± 0.12; and N68A, with -0.233 ± 0.083.

For the variant N68L, the abundance fitness was -0.859 ± 0.12. Under N68S stands -0.083 ± 0.064. Take N68V: the abundance fitness is -0.376 ± 0.076.

As for L36D, the abundance fitness is -0.521 ± 0.19. Under L36I stands 0.08 ± 0.17.

In the case of L36P, the abundance fitness was -0.573 ± 0.12.

Turning to L36K, the abundance fitness is -0.839 ± 0.36. Then L36H, with -0.521 ± 0.37; and L36V, with -0.21 ± 0.082. For N46K, the abundance fitness turned out to be 0.033 ± 0.14. As for N46A, the abundance fitness was -0.077 ± 0.33. Regarding N46G, the abundance fitness is -0.089 ± 0.24. Under N46H stands 0.297 ± 0.25; under N46M, -0.135 ± 0.073; under N46Y, -0.09 ± 0.12. Then N46W, with -0.114 ± 0.092.

As to K50N, the abundance fitness worked out at 0.068 ± 0.15. Under K50W stands -0.239 ± 0.078; under K50C, -0.281 ± 0.23. Regarding K50H, the abundance fitness stood at 0.031 ± 0.067. For the variant E21N, the abundance fitness is -0.091 ± 0.19.

As to E21S, the abundance fitness is -0.086 ± 0.095.

For the variant W26Q, the abundance fitness is -0.818 ± 0.26. As for W26E, the abundance fitness was -0.921 ± 0.33. As to T3L, the abundance fitness was -0.076 ± 0.076.

Consider T3P, for which the abundance fitness is -0.246 ± 0.089.

With T3I, the abundance fitness is -0.078 ± 0.21. Then T3V, with -0.201 ± 0.13; and T3H, with -0.359 ± 0.15; and M55W, with -0.04 ± 0.082. Then M55E, with -0.805 ± 0.19; and M55K, with 0.021 ± 0.14. Then M55N, with -0.752 ± 0.48.

Consider Y67G, for which the abundance fitness was 0.017 ± 0.1. Under Y67E stands 0.212 ± 0.08; under Y67K, -0.045 ± 0.11; under Y67H, 0.085 ± 0.21. C53H: the abundance fitness is -0.324 ± 0.31.

As for C53T, the abundance fitness is -0.048 ± 0.088. Under C53Y stands -0.377 ± 0.23; under C53E, -0.409 ± 0.13. Under C53M stands -0.134 ± 0.092; under C53K, -0.553 ± 0.16; under K32V, -0.157 ± 0.064. Under K32N stands -0.011 ± 0.19; under K32L, -0.169 ± 0.056. For the variant N1M, the abundance fitness was -0.031 ± 0.19. Then N1A, with -0.076 ± 0.25. As for N1L, the abundance fitness is -0.137 ± 0.45. N1K: the abundance fitness was -0.34 ± 0.35. Then N1R, with -0.111 ± 0.2; and N1I, with 0.178 ± 0.41; and N1V, with -0.166 ± 0.12. Turning to S74L, the abundance fitness is -0.28 ± 0.047.

Turning to S74P, the abundance fitness is -0.417 ± 0.11. For S74K, the abundance fitness was found to be 0.133 ± 0.12.

As for S74T, the abundance fitness is -0.076 ± 0.12.

For S74Y, the abundance fitness came out at 0.134 ± 0.27.

As for S74Q, the abundance fitness is -0.405 ± 0.25. Consider S74H, for which the abundance fitness is -0.066 ± 0.18.

For E51K, the abundance fitness is -0.01 ± 0.094. For E51W, the abundance fitness was -0.477 ± 0.08. For the variant E51C, the abundance fitness is -0.219 ± 0.18. Then E51V, with -0.127 ± 0.078. As to E51F, the abundance fitness is -0.243 ± 0.22. Turning to P12H, the abundance fitness is -0.085 ± 0.11.

On to P12G, for which the abundance fitness was -0.039 ± 0.088. Under P12I stands -0.193 ± 0.32. For the variant P12F, the abundance fitness was -0.225 ± 0.16. Under P12Y stands -0.227 ± 0.19; under D59V, -0.211 ± 0.071; under D59F, -0.144 ± 0.16. Under D59K stands -0.052 ± 0.13; under D59P, -0.882 ± 0.14. On to D59A, for which the abundance fitness is -0.035 ± 0.084. Then L72G, with -1.01 ± 0.22; and L72M, with -0.099 ± 0.085. For the variant L72C, the abundance fitness was -0.372 ± 0.16. Then L72A, with -0.463 ± 0.13; and L72T, with -0.814 ± 0.16. Then S42R, with -0.115 ± 0.068. For the variant S42E, the abundance fitness is -0.352 ± 0.12.

For S42V, the abundance fitness was -0.07 ± 0.08. Then S42L, with -0.134 ± 0.054. With S42G, the abundance fitness was -0.062 ± 0.065. Regarding S42N, the abundance fitness is 0.291 ± 0.33. Under S42H stands -0.054 ± 0.26; under T4P, -0.037 ± 0.095; under T4N, 0.076 ± 0.23.

Regarding T4F, the abundance fitness is -0.048 ± 0.12. For T4D, the abundance fitness amounted to 0.045 ± 0.14. As to T4W, the abundance fitness was -0.03 ± 0.17. Regarding L66H, the abundance fitness came to 0.008 ± 0.11. Consider L66E, for which the abundance fitness is 0.016 ± 0.095.

Take L66V: the abundance fitness was determined as 0.045 ± 0.067. For L66G, the abundance fitness was -0.108 ± 0.068. Under L66A stands -0.021 ± 0.049; under E70L, -0.507 ± 0.079; under E70A, -0.598 ± 0.12. Then E70W, with -0.944 ± 0.21; and T16Q, with -0.306 ± 0.21. For T16S, the abundance fitness is -0.087 ± 0.12. Then T16I, with -0.036 ± 0.3; and T16F, with 0 ± 0.24. Regarding T16Y, the abundance fitness is -0.166 ± 0.47. Then T16G, with -0.142 ± 0.094; and T16K, with -0.057 ± 0.055. Then T16P, with -0.277 ± 0.17. Under A13V stands 0.017 ± 0.055; under A13M, -0.036 ± 0.072. For the variant A13Y, the abundance fitness is -0.072 ± 0.084.

As to R8H, the abundance fitness was -0.039 ± 0.14. Under R8M stands -0.108 ± 0.1; under R8A, -0.172 ± 0.099; under R8W, -0.452 ± 0.18. Under R8Y stands -0.403 ± 0.24; under R8Q, -0.097 ± 0.11.

On to R8D, for which the abundance fitness stood at 0.015 ± 0.2.

For the variant D14L, the abundance fitness is -0.51 ± 0.091. For D14M, the abundance fitness is -0.421 ± 0.14. Take D14A: the abundance fitness was -0.237 ± 0.1. Then D14C, with -0.164 ± 0.15; and D14Y, with 0.011 ± 0.26.

I31S: the abundance fitness was determined as 0.041 ± 0.069. On to I31P, for which the abundance fitness was -1.22 ± 0.47.

I31R: the abundance fitness turned out to be 0.063 ± 0.071. T64P: the abundance fitness was -0.704 ± 0.18. Under T64W stands -0.537 ± 0.15.

In the case of T64G, the abundance fitness is -0.126 ± 0.14. Consider T64S, for which the abundance fitness is -0.613 ± 0.16. As to T64I, the abundance fitness was -0.793 ± 0.46. As to T64Q, the abundance fitness was -0.1 ± 0.083. Then N5E, with -0.039 ± 0.099; and N5Y, with -0.121 ± 0.12. With N5M, the abundance fitness was -0.127 ± 0.12. Under V71I stands 0.263 ± 0.17. Under V71T stands -0.145 ± 0.12; under V71L, -0.093 ± 0.052. Then V71P, with -0.401 ± 0.12. On to V71F, for which the abundance fitness was -0.215 ± 0.13. Regarding D48Y, the abundance fitness was -0.358 ± 0.23. On to D48T, for which the abundance fitness is -0.04 ± 0.11. In the case of D48N, the abundance fitness is -0.201 ± 0.25.
